Drawing on paper PMC6594998, this text covers stoichiometry N, in vitro DNA cleavage by Nme1Cas9; sgRNA and AcrIIC2Nme added simultaneously; excess of AcrIIC2Nme needed to block cleavage and Kd for two substances.

Experiment [1] deals with AcrIIC2Nme (purified, pHAT4 construct with N-terminal 6-His tag) (not stated (suffix Nme; its cognate Cas9 is from N. meningitidis)). Nature of the experiment: crystal structure; AcrIIC2Nme alone; Se-SAD; 2.5 Å.
For experiment [2], the target named is Nme1Cas9 (purified, full length) (N. meningitidis).
For experiment [3] the target is unchanged. Briefly: ITC; 100 μM AcrIIC2Nme titrated into 10 μM Nme1Cas9; 20 °C; 300 mM NaCl, 20 mM Tris pH 7.5; One Set of Sites model.
In experiment [4] the target is AcrIIC2Nme (purified, pET28a-Sumo construct) (not stated (suffix Nme; its cognate Cas9 is from N. meningitidis)). Nature of the experiment: crystal structure; Nme1Cas9 and AcrIIC2Nme mixed 1:10, complex purified by gel filtration; hanging drop, 16 °C; Nme1Cas9 digested during crystallization; 2.6 Å. (SEC sorts molecules by how far they enter the pores of the column.)

A value given as a limit tells only on which side of the number the result lay.

As a reminder, the stoichiometry N is the number of molecules, sites or subunits per partner or assembly. For “AcrIIC2Nme (purified, pHAT4 construct with N-terminal 6-His tag) (natural protein)”, the stoichiometry N in experiment [1] turned out to be 2.

By Kd is commonly meant a measure of binding affinity in units of concentration. Read a low Kd as a tighter complex. “AcrIIC2Nme (purified, pET28a-Sumo construct) (natural protein)” registered an in vitro DNA cleavage by Nme1Cas9; sgRNA and AcrIIC2Nme added simultaneously; excess of AcrIIC2Nme needed to block cleavage in experiment [2] above 10 fold excess. In experiment [3], the Kd was 200 nM. The same substance had a stoichiometry N in experiment [4] of 2.
